# Measurements reported in patent publication US20260250410A1 (SICHUAN HUIYU PHARMACEUTICAL, published 2026).
# T1: HuCDCP1-C (human, UniProt Q9H5V8 30-667)
# T1 construct: range 30-667; expressed in HEK-293T, purified by Fc/his tag; also called human CDCP1-C; full-length extracellular domain of human CDCP1; not shown: Fc or his tag
# T1 sequence (looked up): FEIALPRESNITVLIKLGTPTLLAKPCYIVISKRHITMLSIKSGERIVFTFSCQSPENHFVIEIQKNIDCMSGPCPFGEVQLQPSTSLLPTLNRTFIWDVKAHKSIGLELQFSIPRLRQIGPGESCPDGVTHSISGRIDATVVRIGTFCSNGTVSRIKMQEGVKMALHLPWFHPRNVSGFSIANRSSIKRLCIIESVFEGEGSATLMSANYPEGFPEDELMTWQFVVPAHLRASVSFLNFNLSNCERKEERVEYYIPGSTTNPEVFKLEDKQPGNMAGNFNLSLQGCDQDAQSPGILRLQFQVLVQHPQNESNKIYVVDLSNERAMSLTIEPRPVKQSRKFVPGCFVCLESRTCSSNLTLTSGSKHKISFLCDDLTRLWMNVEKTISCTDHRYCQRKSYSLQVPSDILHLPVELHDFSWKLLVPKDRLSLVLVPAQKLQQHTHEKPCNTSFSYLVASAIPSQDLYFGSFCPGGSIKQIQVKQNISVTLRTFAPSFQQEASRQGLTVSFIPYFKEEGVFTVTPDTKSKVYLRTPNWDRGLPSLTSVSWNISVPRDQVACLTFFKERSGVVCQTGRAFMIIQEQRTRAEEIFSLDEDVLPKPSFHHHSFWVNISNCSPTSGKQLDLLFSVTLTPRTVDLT
# Target: T1, HuCDCP1-C
# Assay: SPR (Caterra), antigen immobilized
# Description: The humanized anti-CDCP1 antibodies obtained from Example 11 were subjected to gene cloning, constructed into pTT5 expression vector for a small amount of expression in CHO cells (Expi-CHOS: Gibco A29127), and purified with an Fc affinity column (AT Protein A Diamond Plus. No. AA402312). Antibody purity was analyzed by HPLC and determined by Nanodrop. High-throughput affinity assay was carried out for a small amount of antibodies by Caterra.
Kd,koff,kon,Binder
10.5 nM,0.00202 s⁻¹,193000 M⁻¹ s⁻¹,"1CP-134 (antibody, human IgG1, kappa, V domains shown, humanized 3C11, human IgG1 kappa) VH: QVQLVQSGAEVKKPGASVKVSCKASGYNFISYWLHWVRQAPGQGLEWMGGIYPGNTDTTYNQKFKGRVTMTADTSTSTAYMELSSLRSEDTAVYYCIRYDYDRGMDYWGQGTLVTVSS VL: DIQMTQSPSSLSASVGDRVTITCRASEDIYYRLAWYQQKPGNAPKLLISGATALETGVPSRFSGSGSGKDYTLTISSLQPEDIATYYCQHYWNIPWTFGQGTKVEIKR"
4.8 nM,0.0012 s⁻¹,249000 M⁻¹ s⁻¹,"1CP-135 (antibody, human IgG1, kappa, V domains shown, humanized 3C11, human IgG1 kappa) VH: QVQLVQSGAEVKKPGASVKVSCKASGYNFISYWLHWVRQAPGQGLEWMGGIYPGNTDTTYNQKFKGRVTVTAVTSTSTVYMELSSLRSEDTAVYYCIRYDYDRGMDYWGQGTLVTVSS VL: DIQMTQSPSSLSASVGDRVTITCRASEDIYYRLAWYQQKPGNAPKLLISGATALETGVPSRFSGSGSGKDYTLTISSLQPEDIATYYCQHYWNIPWTFGQGTKVEIKR"
3.6 nM,0.000441 s⁻¹,123000 M⁻¹ s⁻¹,"1CP-156 (antibody, human IgG1, kappa, V domains shown, humanized 8C9, human IgG1 kappa) VH: EVQLVESGGGLVQPGRSLRLSCTTSGLTFTHYHMSWVRQAPGKGLEWVAIIRNKAYGYTTDYSASVRGRFTISRDDSKSILYLQMNSLKTEDTAVYYCVREGGYGYDGTFAYWGQGTLVTVSS VL: DIQMTQSPSSLSASVGDRVTITCRASESVDNYGISFMNWFQQKPGQPPKLLIYAASNQGSGVPSRFSGSGSGTDFTLTISSMQPEDFATYYCQQSKEVPRTFGGGTKVEIKR"
3.58 nM,0.000388 s⁻¹,108000 M⁻¹ s⁻¹,"1CP-153 (antibody, human IgG1, kappa, V domains shown, humanized 8C9, human IgG1 kappa) VH: EVQLVESGGGLVQPGRSLRLSCTTSGLTFTHYHMSWVRQAPGKGPEWVAIIRNKAYGYTTDYSASVRGRFTISRDDSKSILYLQMNSLKTEDTAVYYCVREGGYGYDGTFAYWGQGTLVTVSS VL: DIQMTQSPSSLSASVGDRVTITCRASESVDNYGISFMNWFQQKPGQAPKLLIYAASNQGSGVPSRFSGSGSGTDFTLTISSMQPEDFATYYCQQSKEVPRTFGGGTKVEIKR"
3.21 nM,0.000365 s⁻¹,114000 M⁻¹ s⁻¹,"1CP-161 (antibody, human IgG1, kappa, V domains shown, humanized 8C9, human IgG1 kappa) VH: EVQLVESGGGLVQPGRSLRLSCTTSGLTFTHYHMSWVRQAPGKGPEWVAIIRNKAYGYTTDYSASVRGRFTISRDDSKSILYLQMNSLKTEDTAVYYCVREGGYGYDGTFAYWGQGTLVTVSS VL: DIQMTQSPSSLSASVGDRVTITCRASESVDNYGISFMNWFQQKPGQPPKLLIYAASNQGSGVPSRFSGSGSGTDFTLTISSMQPEDFATYFCQQSKEVPRTFGGGTKVEIKR"
36.6 nM,0.000579 s⁻¹,15800 M⁻¹ s⁻¹,"1CP-155 (antibody, human IgG1, kappa, V domains shown, humanized 8C9, human IgG1 kappa) VH: EVQLVESGGGLVQPGRSLRLSCTASGLTFTHYHMSWFRQAPGKGLEWVAIIRNKAYGYTTDYSASVRGRFTISRDDSKSILYLQMNSLKTEDTAVYYCVREGGYGYDGTFAYWGQGTLVTVSS VL: DIQMTQSPSSLSASVGDRVTITCRASESVDNYGISFMNWFQQKPGQPPKLLIYAASNQGSGVPSRFSGSGSGTDFTLTISSMQPEDFATYYCQQSKEVPRTFGGGTKVEIKR"
3.8 nM,0.00042 s⁻¹,110000 M⁻¹ s⁻¹,"1CP-160 (antibody, human IgG1, kappa, V domains shown, humanized 8C9, human IgG1 kappa) VH: EVQLVESGGGLVQPGRSLRLSCTTSGLTFTHYHMSWVRQAPGKGLEWVAIIRNKAYGYTTDYSASVRGRFTISRDDSKSILYLQMNSLKTEDTAVYYCVREGGYGYDGTFAYWGQGTLVTVSS VL: DIQMTQSPSSLSASVGDRVTITCRASESVDNYGISFMNWFQQKPGQPPKLLIYAASNQGSGVPSRFSGSGSGTDFTLTISSMQPEDFATYFCQQSKEVPRTFGGGTKVEIKR"
19.1 nM,0.00302 s⁻¹,158000 M⁻¹ s⁻¹,"1CP-151 (antibody, human IgG1, kappa, V domains shown, humanized 8C9, human IgG1 kappa) VH: EVQLVESGGGLVQPGRSLRLSCTASGLTFTHYHMSWFRQAPGKGLEWVAIIRNKAYGYTTDYSASVRGRFTISRDDSKSILYLQMNSLKTEDTAVYYCVREGGYGYDGTFAYWGQGTLVTVSS VL: DIQMTQSPSSLSASVGDRVTITCRASESVDNYGISFMNWFQQKPGQAPKLLIYAASNQGSGVPSRFSGSGSGTDFTLTISSMQPEDFATYYCQQSKEVPRTFGGGTKVEIKR"
2.7 nM,0.000305 s⁻¹,113000 M⁻¹ s⁻¹,"1CP-162 (antibody, human IgG1, kappa, V domains shown, humanized 8C9, human IgG1 kappa) VH: EVQLVESGGGLVQPGRSLRLSCTTSGLTFTHYHMSWVRQPPGKAPEWVAIIRNKAYGYTTDYSASVRGRFTISRDDSKSILYLQMNSLKTEDTAVYYCVREGGYGYDGTFAYWGQGTLVTVSS VL: DIQMTQSPSSLSASVGDRVTITCRASESVDNYGISFMNWFQQKPGQPPKLLIYAASNQGSGVPSRFSGSGSGTDFTLTISSMQPEDFATYFCQQSKEVPRTFGGGTKVEIKR"
2.96 nM,0.000321 s⁻¹,109000 M⁻¹ s⁻¹,"1CP-158 (antibody, human IgG1, kappa, V domains shown, humanized 8C9, human IgG1 kappa) VH: EVQLVESGGGLVQPGRSLRLSCTTSGLTFTHYHMSWVRQPPGKAPEWVAIIRNKAYGYTTDYSASVRGRFTISRDDSKSILYLQMNSLKTEDTAVYYCVREGGYGYDGTFAYWGQGTLVTVSS VL: DIQMTQSPSSLSASVGDRVTITCRASESVDNYGISFMNWFQQKPGQPPKLLIYAASNQGSGVPSRFSGSGSGTDFTLTISSMQPEDFATYYCQQSKEVPRTFGGGTKVEIKR"
42.5 nM,0.000767 s⁻¹,18000 M⁻¹ s⁻¹,"1CP-159 (antibody, human IgG1, kappa, V domains shown, humanized 8C9, human IgG1 kappa) VH: EVQLVESGGGLVQPGRSLRLSCTASGLTFTHYHMSWFRQAPGKGLEWVAIIRNKAYGYTTDYSASVRGRFTISRDDSKSILYLQMNSLKTEDTAVYYCVREGGYGYDGTFAYWGQGTLVTVSS VL: DIQMTQSPSSLSASVGDRVTITCRASESVDNYGISFMNWFQQKPGQPPKLLIYAASNQGSGVPSRFSGSGSGTDFTLTISSMQPEDFATYFCQQSKEVPRTFGGGTKVEIKR"
2.92 nM,0.000346 s⁻¹,118000 M⁻¹ s⁻¹,"1CP-154 (antibody, human IgG1, kappa, V domains shown, humanized 8C9, human IgG1 kappa) VH: EVQLVESGGGLVQPGRSLRLSCTTSGLTFTHYHMSWVRQPPGKAPEWVAIIRNKAYGYTTDYSASVRGRFTISRDDSKSILYLQMNSLKTEDTAVYYCVREGGYGYDGTFAYWGQGTLVTVSS VL: DIQMTQSPSSLSASVGDRVTITCRASESVDNYGISFMNWFQQKPGQAPKLLIYAASNQGSGVPSRFSGSGSGTDFTLTISSMQPEDFATYYCQQSKEVPRTFGGGTKVEIKR"
